Data: the supplement of paper PMC12636428

System: Saccharomyces cerevisiae
Experiment: transcriptional activation domain activity (GFP:mCherry ratio, weighted mean of sorted bins, harmonized to initial dataset scale) (arbitrary fluorescence ratio units); higher = stronger transcriptional activation
Conditions: beta-estradiol 1 µM; induction time 4 h
Method in brief: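 Activation activity, the read-weighted mean of bin median fluorescence averaged across barcodes, was linearly mapped onto the scale of the initial dataset. It was measured for barcoded protein tiles fused to an estradiol-inducible synthetic transcription factor at URA3 in GFP-reporter yeast diploids. Cultures diluted 1:5 into SC with 1 uM beta-estradiol were held 4 hours at 30 °C, sorted into 8 bins by GFP:mCherry ratio, and barcode-sequenced, and tiles under 50 reads were discarded.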

Row | Sequence | transcriptional activation domain activity
1 | PPGNRTGAVTIGDESINGSEMPDFSLDLVSNDRQTGLEALDYDIHNYFPQHSE | 75200
2 | MAGRKRAAAEDTTEKRETRSSKVAKTEGTKTAGKAAKGTARLKARLIISLTIL | 34500
3 | KSKKRSRVDEEDEEEYGASSSKAKAKKDKEKPAKKAAAKGKEKAAKGKASAKG | 26200
4 | KDQIMYYIHLVIMISTIIQALVQHMIVVNTLPTYFCHPINVFSNFFWHVQFTL | 39300
5 | AAKPAPKKAPGRPKKAAAEPEPASEPTESEEPKPKKAGGRPRKAAAPAAEPEA | 40700
6 | FSAEIAILRWLKGNRQNDYIGALTSINRGLKLMYVHAYQSLVWNRAVSERWAR | 57900
7 | LVWLDNWPAGLKLNTELSRFLCLCFMSLTDIWGNLLAPYLPLILRIIGIMGRT | 57200
8 | MIIASLVPGGGIGFFYFVFWSLLWLRLFLAFLSIMGSFLCLFTCYMPSFLFFS | 33400
9 | MYRLQCGVIYSLYVMCFMLLQMLLCVCVVSESFFFFLFLALIVWSPVYIILRV | 41900
10 | MDNTTDLYNYLVDMGLKFLLFWNMVNCKFCHLCLLMPFDITYIIFIFILLLEF | 70300
11 | FGSDYTRFYMYMPHPSILPYILGDLFWTFWRGFIDMEMTSKTYLYLFFLLLPP | 72300
12 | FVGNQAGCYNLVPVYDWIKRCIISIFVVFFISFLPLFLQELCERGVIRALYRL | 72800
13 | YIKGVVLALWILDTFGMCLIFHILYWYLITNYGNPLSITEPIWSIILHIMVTA | 48500
14 | ALKVVVRVKMFGIGPLIYCSCLFVLLFSVVLLLLLAALYLMLQIYAALVVSAV | 47100
15 | GAEAGAAVPGKRRNRRGRRGKKKKPGLANGAANGDGVEREDGENGEGEVPKEE | 52100
16 | LLVLYGLTWAFNLISCMLISTNNGNYISCILGLFNCVFVYTLTKMILYLYFIE | 57000
17 | FLQNSSDSVDIRLALLLTPLENTKGVSHVDQLNKPTHTVVVGIVHLCNPKSRA | 51600
18 | GAKDLDDAVSIKVNEDGTYDVSVHVADVSFFVKPNTALDRDARKRATSVYLVQ | 48400
19 | AFEVSGKGRSRTREKVTLDLEELAGGAIDMSKSDLEHLVIHLFIKSYLRMSFV | 43100
20 | TAALIELILAIAFRVTMYHLALYGSNVLFRYMRLSNELSNRYANCLVATLNAR | 23200
21 | RHLPAVNGGKLTSYAIVGEGSMSPHFVWTAHHAVYVVDGWSLALLFRKVELRY | 48200

Row | Sequence | transcriptional activation domain activity
22 | SLYRVWDCKSTMLAFSKYIPQIHSPSALEYALVSMGSDFVLFLLRRIFEILKK | 55500
23 | EETKPAESAKETKPVANRPAQKKPEKRKKEEQEGQEVVEKETSKKRAKKDKKS | 39200
24 | MGWGGASGFSPVVGIFFFTGPLLLFLSTVFLWIQAQFFPMMVCGLFCVFWLSF | 60500
25 | EEPKAEEAAPAAEAPAAEAPAAETPAAEPAAEQPATEEAKPAESAATETKKED | 12500
26 | QQAGRTMSEGKKKRNTGKEEGEEGDEERKRKRRAEKKRKQRKRRMSKSTGEEE | 31700
27 | PQCYNNWKSLLLLQRYLYFVLPPFPVHFLPIFKILCTYIQLLIWFATISLASL | 40700
28 | PLLNGSAIISRLTTGVIGDRYGVLTCEVPVAFITGCLIFSMCVLLLIILHLVC | 21700
29 | MYDFFLFLSFLPFPSPSLLCFLILFSFIYLLLFHFYIYIYICLFLSFYIHAFV | 10600
30 | KGDLESFRRITDLNLTHEHARWFCRYHMFYQLGNYCEIYLWRSIFRKVFLLTG | 54700
31 | VRQQLKIRLIKLFRRFYPYVNFAYYASGLVYNVLYLFNKTKYYSPWLHLIGVQ | 52200
32 | ADAGGKDKGEKVAGDAEGAPAEGKAEVKGEARAETAVEGAEQQSNGKKRKAAS | 34200
33 | EVEGEGEDGEEEAAPPPKKVRASGRSKKIEYKEESEEEAPAPKKTRGKKAATK | 6720
34 | RRWTRSKWLLLCTYGMMFCIGLTMLLGCLLTWFRGYLRAEVITVGFKRILIIA | 47500
35 | FFHVTIRVASQGCGIGFAILGFGNLGLFLAFLILGAEGYFSLVLCTFRFVISW | 78100
36 | AAEDVEGEGEAKEKKSKKRRAEANGVGEGEEGERKKKKRKEKAVEQTEEEVKP | 34800
37 | MLLLPLSFPFLSFPFLSFPFLSFPFLSSPFLSLVFSVLVLFFIFLLLLLLLLL | 34900
38 | KLGVCLLLILDSLHTTFCIYAMYWYLVINFGVFPELAMMHWSFEAQQMLNVLV | 37800
39 | ALSTADGGRVPAKRARKAINCGPCRLSKLKCDRERPCSSCKLRGTTASCYQGQ | 34000
40 | RRVTSMRLDTEGYVGVLGVEVDFRGRMFDLTADILVRVRYCLQSTILLLEIPL | 55100
41 | APDAKTVLPIPELDDAVVESFFSSSTDSTPMFEYENLEDNSKEWTSLFDNDIP | 137000
42 | LLFLLAHWHALAKLRMHTDSTLTLLDCATKSLGAALRDFQTKVCPAFNTHELR | 51400

Row | Sequence | transcriptional activation domain activity
43 | VVLYMLRFLGLMHIMLFSHIDQRCKDFAKVYLRGRIIRYTCPFFSRSSLHKIV | 49400
44 | MDTLSSSFAHILCIFFYLHPFLLFFSFSLFPFFVFATPATRTGVRLFYFFFLF | 41600
45 | MIPSVMIRTSDYSLVIILSLCLVLKMMLICIVCSIESYLTNLDKWLFCLILCK | 51300
46 | HKLALNLKTAWKGRKYEIPLFGVHIAGQYVSTYIFYEVASFKAFFNYIFSFTR | 69100
47 | ANVSATAAPIVAVKRGRGRPRKDPSETQAAKKAAAAAVAPDGAKRGRGRPRLV | 45200
48 | TVKEEEEEVKAKPAAAKVSRVRKAAAAKAQSEPEKDVAGPAPKTRAARTRAAS | 48100
49 | SKSEVSGTGRKAYAQKGRGKARVHSLRAPQFRGGGRAFPVKPRDFSSEIQIKV | 61100
50 | MGLGFFSFFLSVFSFFLFPFFFFGCEFIYLFLVFWWRVDFSPMAERHSVEAGP | 53000
51 | QAPQAGRGQGAQGGRTRHQAGGARAEEDEPQGARQEGRGGQGGGEEEARGGEG | 37600
52 | PKQYCVRPNAARLEPGERVEVQVLLQPMKEDPPEDTKCRDKFLIQSAAIPPQH | 39200
53 | MFMDTLLFVFMHYGWTFFLNCCLWCFMISLCFWYVKFCLPIGCYILILCMWQG | 66200
54 | FCQISGFSLAVGIESSDIAVLLIALHSVMYIFSPLSGLYPYRQLAYLVYYLFP | 49400
55 | ARLLPDTIHLYILVVASLVNTLCVLFLDCCFLLLFFLFFYFFYPFLLFLFASF | 41200
56 | APTDETGDAETKPRGRGRPKGSGTAKKAESQPESAEPTTARRGRKRASAAAES | 43400
57 | CLLICIEYLTLSSLLDINVLLTTIVLHSLSLSSNLEVVRVVRRFFWVRCINLL | 47200
58 | RSSKPSSRFLVLTKQKVYILVTRMVQNAPQTTIERSVGISSISSASVSTLQDD | 29600
59 | MRDIIGISIFLFFSLFLFYLSFCFCMRNVNLSFSLFILTLIDCLTDLLIMVPI | 60300
60 | MHTLVLDFDEDVVEQALRLFNLNSRALTTFLSLLVMEYGIALGPMRHRWITSP | 18100
61 | HWSYARNANMIVNFFYKNIMGIGVLWWFQIYCGWSTTYVFEYTYLLFWNVFWS | 56200
62 | KCCVHVHQVYPYFFVEYFGKMRLRSGQLSALTFGAELQYTRVLIHVGVHFYGF | 47400
63 | FYFFFLLSLFSSSSPPLIFLALPLPFSISLTVSNPLAFPVAFFPLFSLSSLLN | 65800

Row | Sequence | transcriptional activation domain activity
64 | LHQSGITHVYYLVENYSKQILLSHFLLNDISFRGWIMLLRNMSFRSIRHCQST | 54800
65 | NTCCCFFVCSFPSSKQKTLGALREGSWTFFFCFFLFFFLFFLVFFCFFLFCFF | 24000
66 | SQVNKGKVQVWVMYFSFSFFFLFFIHLVCWFLLFCFFFFFVPFIIPLFFFFFL | 32300
67 | DKKNVDINEFLLDESVSNLFTTRQIDLFKKNVNLYSPLFQNQKDAVSSTSLTP | 81800
68 | FIRSQLGSVMPTIALSLMKDVLFRLEQLFLNRECHEWPVALAVLIIVLMTIES | 52800
69 | LSPGKPHQGMVRVRSPNNMVAFVNLLVRLCDLGFPAHWISDYVQSMLMDKVVT | 66400
70 | AKILRELFLLYQPPEELIPSLQQWYLLVQACSGIVTSSDFGNTLFGIARLCLP | 30500
71 | PVPAAAASPVAVPQPAPEQSKPVVKEEKKPEKKVDEERKRKGTKEGQQQQQQQ | 16700
72 | VQVVGVLCVGWSLKVWTMHLLGDGGVAVLVKGRTRTVPMAWEEWGAVVEVMRG | 40300
73 | PSLPPSHPVPSLSLFCFFVFFFAFFFFFFMPIFYYNLLISHFPFCRCWRCLHM | 26200
74 | TEGEPETPADGDEEEGGEAEAEGGEEKKEEEEGWGLPVKKKKGKKGKGSNDAT | 26900
75 | EQSGNGDINNGTRNDIEINLYRSHPTMIMSKVMKREVKPLSENYIIIQDCFLK | 62500
76 | RNIGTGPSAPGGVDHKRSRACESCRGLKVRCEPANEANLQGSCKRCAKAGRHC | 40400
77 | LFCFLHYNLLPLPLLLYHLLLAHHILLQLNLDPFLPLLPLLPFLPLLFLLCHL | 36000
78 | SFMWVLVWLLVHIFKKFATITVDSATINRLARAFSSFDTGTVLTKEVILRLWR | 52100
79 | DDENEGSDTEAEAPAEKPKRGRKKAAPKEGADGEEEAPAAKKAAPRGRGKKAA | 6980
80 | RLLRNLPLIAGHGPKYLQGIDKFVENEFLTVVGTWMRATKFDVLSFMIHYVTL | 65500
81 | MCQWWQIVLIRWMNLQILKYWAVEVKPLMMMWRRLIVIIIVILYRNFFFFFLM | 30900
82 | KKKAAAEEDDEDDDEKVPAKKPAKRGRKKAADDEADEPQPPAKKAKKSPAKKT | 55800
83 | AVWPLSERSKFHNIISVDLSDLGDVINPDVGTITELVCFDESIADLYPVGLDS | 122000
